Here are results for four molecules from patent US20080241166A1 (DOMANTIS, published 2008).

In assay [1] the target is T1, mouse serum albumin (mouse, UniProt P07724 25-608).
T1 construct: Biotinylated (about 2 biotins per molecule) in the capture ELISA; unlabelled on the CM5 chip; also called MSA; biotinylated MSA
Description: capture ELISA: dAb on protein A, biotinylated MSA, streptavidin HRP. Background: An ELISA detects its analyte on a solid surface through an enzyme-linked reagent.

The target in assay [2] is T2, human TNFR1 (human p55 TNF receptor) (human, UniProt P19438 30-211, limits assumed).
T2 construct: also called TNF receptor 1; TNFα receptor
T2 sequence: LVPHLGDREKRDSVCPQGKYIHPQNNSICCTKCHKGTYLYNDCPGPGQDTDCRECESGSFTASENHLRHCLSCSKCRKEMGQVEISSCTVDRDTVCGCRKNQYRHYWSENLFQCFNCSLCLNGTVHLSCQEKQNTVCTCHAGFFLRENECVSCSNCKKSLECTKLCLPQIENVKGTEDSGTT
Description: selection from dAb libraries.

Assay [3] concerns the target T3, EGFR expressed on A431 cells (UniProt P00533 25-1210, limits assumed). Description: cell-based or functional assay.
The target of assay [4] is T3, EGFR expressed on A431 cells. Briefly: EGFR receptor binding assay: inhibition of biotinylated EGF binding to A431 cells; average.
For assay [5] the target is unchanged. Description: EGFR receptor binding assay: inhibition of biotinylated EGF binding to A431 cells; highest value obtained.
The target in assay [6] is EGFR (as used for the KD column of Table 10) (UniProt P00533 25-645, limits assumed). Briefly: method not described.
Assay [7] addresses T3, EGFR expressed on A431 cells. Description: EGFR receptor binding assay: inhibition of biotinylated EGF binding to A431 cells; lowest value obtained.

T1 sequence (P07724 25-608 limits assumed): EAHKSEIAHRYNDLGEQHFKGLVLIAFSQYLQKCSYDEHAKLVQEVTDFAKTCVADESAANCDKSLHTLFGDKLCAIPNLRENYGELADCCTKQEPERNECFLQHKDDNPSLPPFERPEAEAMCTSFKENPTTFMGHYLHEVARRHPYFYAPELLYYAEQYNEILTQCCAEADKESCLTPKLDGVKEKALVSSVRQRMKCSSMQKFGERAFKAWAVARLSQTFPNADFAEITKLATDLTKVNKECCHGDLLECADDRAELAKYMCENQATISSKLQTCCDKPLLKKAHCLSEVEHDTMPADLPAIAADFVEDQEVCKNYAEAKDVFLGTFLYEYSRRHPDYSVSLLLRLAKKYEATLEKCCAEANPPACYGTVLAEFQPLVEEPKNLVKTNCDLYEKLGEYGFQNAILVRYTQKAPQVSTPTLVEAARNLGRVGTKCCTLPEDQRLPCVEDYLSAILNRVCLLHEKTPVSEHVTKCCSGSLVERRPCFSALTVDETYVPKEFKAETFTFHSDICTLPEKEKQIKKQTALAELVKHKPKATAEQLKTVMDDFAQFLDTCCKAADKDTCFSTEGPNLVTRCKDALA

B1: anti-serum albumin VH dAb, clones 8, 10 (other)
VH: EVQLLESGGGLVQPGGSLRLSCAASGFTFWVYQMDWVRQAPGKGLEWVSSISAFGAKTLYADSVKGRFTISRDNSKNTLYLQMNSLRAEDTAVYYCAKLSGKFDYWGQGTLVTVSS
notes: dAb
For the molecule B1, the binding result in assay [1] is recorded as “binds”.

B2: anti-serum albumin VH dAb, clone 36 (other)
VH: EVQLLESGGGLVQPGGSLRLSCAASGFTFWSYQMTWVRQAPGKGLEWVSSISSFGSSTLYADSVKGRFTISRDNSKNTLYLQMNSLRAEDTAVYYCAKGRDHNYSLFDYWGQGTLVTVSS
notes: ranges to be checked
For the molecule B2, the binding result in assay [1] is on record as “binds”.

B3: TAR2h-5 VH dAb (other)
VH: EVQLLESGGGLVQPGGSLRLSCAASGFTFDLYNMFWVRQAPGKGLEWVSFISQTGRLTWYADSVKGRFTISRDNSKNTLYLQMNSLRAEDTAVYYCAKTLEDFDYWGQGTLVTVSS
notes: TAR2-5 and TAR2h-5 are used for the same dAb; also called TAR2-5
Regarding B3, in assay [2], the binding result is “binds”.

B4: DOM16-39-109 (other)
chain: DIQMTQSPTSLSASVGDRVTITCRASQWIGNLLDWYQQKPGEAPKLLIYYASFLQSGVPSRFSGGGFGTDFTLTISSLQPEDFATYYCQQANPAPLTFGQGTKVEIKR
notes: anti-EGFR dAb
As to B4, in assay [3], the “KINASE ASSAY IC50, average” value was found to be 8.69 nM; the “KINASE ASSAY IC50, highest value” was 11.1 nM; the “KINASE ASSAY IC50, lowest value” was 6.82 nM. In assay [4], this molecule displayed a half-inhibitory concentration (IC50) of 1.05 nM. Besides, the IC50 in assay [5] was determined as 1.47 nM. Binding in assay [6] was put at a Kd of 1.01 nM. This molecule yielded a half-maximal inhibitory concentration (IC50) in assay [7] of 0.746 nM.

As usually defined, the IC50 is the concentration at which inhibition is half-maximal. Low readings indicate greater potency in that assay, high ones weaker potency in that assay. As usually defined, the Kd is the equilibrium constant for the complex coming apart. Read a high Kd as lower affinity.
